Assay results as given in the supplement of paper PMC9170038.

System: MS2 coat protein
Experiment: apparent KD of MS2 coat protein; designed switch direction (-1 OFF switch, 1 ON switch): -1; higher = weaker reporter binding
How it was run: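 Stalled E. coli RNA polymerase transcribed designed RNA switches on Illumina chips, which were then titrated with SNAP-549-labelled MS2 coat protein, doubling from 0.7 or 1.5 nM to 3 µM. Steps lasted from 0.8–1.5 h at the lowest concentration to 10–20 min at the highest. The apparent KD is each design's median over clusters of curve-fitted normalised fluorescence.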

[1] = Eterna round: R95, input ligand: FMN 200 uM
[2] = Eterna round: R95, input ligand: microRNA oligo, concentration not stated
[3] = Eterna round: R95, input ligand: none
[4] = input ligand: microRNA oligo, concentration not stated

| Sequence | apparent KD of MS2 coat protein (input ligand: FMN 200 uM) [nM] | apparent KD of MS2 coat protein (input ligand: none) [nM] | apparent KD of MS2 coat protein [1] [nM] | apparent KD of MS2 coat protein [2] [nM] | apparent KD of MS2 coat protein [3] [nM] | apparent KD of MS2 coat protein [4] [nM] |
| --- | --- | --- | --- | --- | --- | --- |
| CAGUACUGAGGAUAUACAUGAGGAUCACCCAUGUGAACCAGCUAGGAUACUAGCAAAAGUAGAAGGCAGUACUG [Mat - Exclusion 3 - Eli Mod - D17] (Eterna round: R97, puzzle: Exclusion 3) | 67 | 71.4 | – | – | – | – |
| CUGGUCCGAGGAUAUAUUUAGUGAAACAUGAGGAUCACCCAUGUUAUUAGAUGGAUGUAAAUAGAAGGCGGACUAG [Mat - Exclusion 5 - JL mod - D63] (puzzle: Exclusion 5) | – | – | 18.5 | 20.4 | 23.8 | – |
| GACUGCCGAGGAUAUACAUGAGGAUCACCCAUGUGCUUCAGCAUUUUUUAAUGCAUGGGUAGAAGGCGGUAGUC [LRO-Excl3-13] (puzzle: Exclusion 3) | – | – | – | 29.6 | – | – |
| AGUUGGCGAGGAUAUACAUGAGGAUCACCCAUGUGGUCCUGCGAUGGUGUCGCCCUUUGUAGAAGGCGCGGGUA [salish99_ex3_r4_055] (Eterna round: R97, puzzle: Exclusion 3) | 40.7 | 38.8 | – | – | – | – |
| GAAUAGAGAGGAUAUGCGUAGUAGGUAGUAAGAUAUAUCUGACAUGAGGAUCACCCAUGUAGAAGGCUCAGAUC [EX2 #3] (Eterna round: R97, puzzle: Exclusion 2) | 40.1 | 35.2 | – | – | – | – |
| CCGCUGUGAGGAUAUUAGUAGUAGUCAGAAAAGACUAUUACUGAGAAGGCACAUGAGGAUCACCCAUGUGGCGG [Mat - Exclusion 4 - Eli Mod - D47] (Eterna round: R97, puzzle: Exclusion 4) | 31.4 | 21.5 | – | – | – | – |
| CUAGUAUAUCAGGAUAUGAUAUUGUGUAGUAAAUCAGAAGGGAUGACAUGAGGAUCACCCAUGUUAAGGGAUGA [JR_Ex6_Sub047] (Eterna round: R97, puzzle: Exclusion 6) | 41.4 | 54.3 | – | – | – | – |
| ACAGUAUGAUCCGCUCAACAUGAGGAUCACCCAUGUGAUGACUAGGAUAUUAGUAGCCCGCGCAUUAAGAAGGAGUUACGAUUG [Eternabot solution 33] (Eterna round: R96, puzzle: Exclusion NG 3) | 20 | 23.6 | – | – | – | 13.9 |
| GUUAUGUCAGGAUAUGCUAAUGAUGAGUGCUCAGACAUGAUGCAGAAGGGACAUGAGGAUCACCCAUGUACUGA [EX4 #12] (Eterna round: R97, puzzle: Exclusion 4) | 102 | 35.3 | – | – | – | – |
| UUGAAGUAAGGAUAUACAUGAGGAUCACCCAUGUGGAGGAAGGUGAUGGGAGUAGGUAGUAGAAGGUACGAGGA [JR_Exclu3_Sub063] (puzzle: Exclusion 3) | – | – | 124 | 100 | 220 | – |
| UAUUCGAUAGGAUAUGCACAUCAUUUGGGAGGUAACAGUGCACAUGAGGAUCACCCAUGUAGAAGGAUCUGGAU [Eternabot (L2) Solution 46] (Eterna round: R97, puzzle: Exclusion 2) | 102 | 118 | – | – | – | – |
| AGAGACAAUCUAGGAUAUGUGUAUGAAGAGUGCGCAGAAGGAGACAUGAGGAUCACCCAUGUACAGCGACAGAAGACGACAACC [Matt's Exclusion 2] (Eterna round: R96, puzzle: Exclusion NG 1) | 14.4 | 17.5 | – | – | – | 36.2 |
| CUGAGCAGACGGAGAUCCAACAUGAGGAUCACCCAUGUCUCAAAAGCUUUUUGCUUGUCUUAUUCUCCUCUGUUCUC [Bieda] (puzzle: Sensor v3, turn-off variant 1) | – | – | 13.5 | 35.5 | 11.1 | – |
| UAUUAUAAUGUAGGAUAUCUGCACGUGUAGUGCAGAGAAGGACAUGAGGAUCACCCAUGUAUAGUAGCUUCGGCUACAUUAUUU [ENG1-B3] (Eterna round: R96, puzzle: Exclusion NG 1) | 90.5 | 71.2 | – | – | – | 61.8 |
| AUUAUGUGAGGAUAUUAGUAGUAAAUAAAUAAAAUUAUUACUGAGAAGGCACAUGAGGAUCACCCAUGUUCCUU [Salish 062 v6] (Eterna round: R97, puzzle: Exclusion 4) | 127 | 24.1 | – | – | – | – |
| CAGUACUGAGGAUAUACAUGAGGAUCACCCAUGUGCUUUAGCUAGGAUACUAGCAUUAGUAGAAGGCAGUACUG [Fiskers Ex 3 828 mod 9] (puzzle: Exclusion 3) | – | – | – | 11.3 | – | – |
| AUAAUGUGAGGAUAUCAGUCGACUAGCUUCGGCUAGUCGACUGAGAAGGUACAUGAGGAUCACCCAUGUAGAUC [E4/20-A1] (Eterna round: R97, puzzle: Exclusion 4) | 59.9 | 40.9 | – | – | – | – |
| AAUUAGUCAGGAUAUACAUGAGGAUCACCCAUGUAAACUUUUAGUUUAAUUUGAAUGUGUAGAAGGGACAUUUA [Ex3 #47] (Eterna round: R97, puzzle: Exclusion 3) | 18.9 | 22.2 | – | – | – | – |

| Sequence | apparent KD of MS2 coat protein (input ligand: FMN 200 uM) [nM] | apparent KD of MS2 coat protein (input ligand: none) [nM] | apparent KD of MS2 coat protein [1] [nM] | apparent KD of MS2 coat protein [2] [nM] | apparent KD of MS2 coat protein [3] [nM] | apparent KD of MS2 coat protein [4] [nM] |
| --- | --- | --- | --- | --- | --- | --- |
| AAUGAUGAUGUGAGGAUAUACAUAGUUAGACCGUAGUAGAAGGCACAUGAGGAUCACCCAUGUAGAUGUUAGGU [JR_BME4_Sub003] (puzzle: Brourd's mod of Exclusion 4) | – | – | 21.5 | 12.9 | 14.4 | – |
| ACCUCACUUGAGGAUCACCCAAGUCAGGAUAUACUCGUUUGCCGCGCGACGCGGCAUUGUAGAAGGGACGGGCU [Orquisates] (Eterna round: R97, puzzle: Exclusion 1) | 32 | 18.8 | – | – | – | – |
| CUGGUCCGAGGAUAUAUUAAGUGAUACAUGAGGAUCACCCAUGUUAUUUGAUGGAUAUUAAUAGAAGGCGGACUAG [Mat - Exclusion 5 - JL mod - D75] (puzzle: Exclusion 5) | – | – | 31.9 | 18.8 | 28.7 | – |
| AGUACUAACACGGAAGUGUUAGUACAAUAAGCUUGUGUUACAUGAGGAUCACCCAUGUCCUCAUAAGCUCGUCUUAU [Mat - Sensor v3 - Turn-off var 2 - D61] (puzzle: Sensor v3, turn-off variant 2) | – | – | 113 | 12.4 | 112 | – |
| GAUCACUGAGGAUAUACACAGAUACAAAGUAUCUGAUUGUGACAUGAGGAUCACCCAUGUAGAAGGCAGAGGUC [Omei Ex2 B6] (Eterna round: R97, puzzle: Exclusion 2) | 179 | 31.1 | – | – | – | – |
| GUGUUACAUGAGGAUCACCCAUGUGAGGAUAUGAGUCAGUCACGGUGACGUGGCUGACUCAGAAGGCACAAAGG [Mat - Exclusion 1 - JL Mod - D39] (Eterna round: R97, puzzle: Exclusion 1) | 291 | 93.9 | – | – | – | – |
| GGAAUACAUGAGGAUCACCCAUGUAAGGAUAUGCUGAAUAUCACGGAAUAAACGUGCAGCAGAAGGUACAAAGG [Mat - Mod of my Eli Mod D46] (puzzle: Exclusion 1) | – | – | 103 | 65.9 | 93.6 | – |
| CCUCGUUGGGAGGAUAUCCUUUAGAUUGGAGGAGGAGAAGGCUCGACAUGAGGAUCACCCAUGUAAAAUUUAAA [-18.7, -17.5 kcal, A 31%] (Eterna round: R97, puzzle: Exclusion 6) | 274 | 73.3 | – | – | – | – |
| AAGCAACAUGAGGAUCACCCAUGUGAGGAUAUACGCAUGCAUGCAUGCAUGCAUGCAAGUAGAAGGCACAAUAC [Design #16] (Eterna round: R97, puzzle: Exclusion 1) | 69.8 | 35.3 | – | – | – | – |
| AUGGUUCGAUUAGGAUAUUAUAGAUUGAAUAGUAUGAUUUACAUGAGGAUCACCCAUGUUACAUAUAAGAAGGAAUCGAAUCAU [JR_ExcNG2_Sub087] (Eterna round: R96, puzzle: Exclusion NG 2) | – | – | – | – | – | 11.5 |
| CUAUCCAGAGGAUAUACGAGAUCGAAAGAUCGGCGAUCCCUACAUGAGGAUCACCCAUGUAGAAGGCUGGAUAG [Mod 17 - Jieux - Exclusion 2] (Eterna round: R97, puzzle: Exclusion 2) | 83.8 | 19.7 | – | – | – | – |
| UUGUGCACGCUGCGAUCCUACAUGAGGAUCACCCAUGUGGUCUGGUGGCGUGGGUCACCGGACUUGGCUCGUCUUGC [salish99_S_TOV1_R5_073] (Eterna round: R97, puzzle: Sensor, turn-off variant 1) | 28.8 | 28.6 | – | – | – | – |
| GAUCAUGCAGGAUAUACAUUAACCAUGAAAACAUGGAUCAAACAUGAGGAUCACCCAUGUAGAAGGGCAUGAUC [Omei Ex2 A21] (Eterna round: R97, puzzle: Exclusion 2) | 46.6 | 25.9 | – | – | – | – |
| UUCGUGCUGCUUUGCUGUACGAGUACAUGAGGAUCACCCAUGUAGGAUAUGGUACGCUUUGCGUGCUAGAAGGAUAUGUGUUGC [salish99_ExNG3_r04_506] (Eterna round: R96, puzzle: Exclusion NG 3) | 24.6 | 24 | – | – | – | 16.9 |
| CACCCACAUGAGGAUCACCCAUGUGAGGAUAUGAUACUAUGUACUUCGGUACAUAGUAUCAGAAGGCACAGGUG [Ex1-3: 61] (puzzle: Exclusion 1) | – | – | – | 30.3 | – | – |
| GAUUGACAUGAGGAUCACCCAUGUGAGGAUAUCGGCUGGACCGUGUUGGCUUCCGUCGCGAGAAGGCGCAUAGG [Exclusion 1 V42] (puzzle: Exclusion 1) | – | – | 61 | 43.5 | 46.4 | – |
| GGUGCGUUUGUGAGGAUAUGCUGGUCCUUGGCUCAGCAGAAGGCACAUGAGGAUCACCCAUGUGGUGUCGUACC [salish99_Bmod_Ex4_033] (puzzle: Brourd's mod of Exclusion 4) | – | – | – | 239 | – | – |
